Target: Full-length human KLHL41 GST fusion protein (human) (UniProt O60662)
Experiment: AlphaScreen or HTRF

Chain of UniProt O60662 (O60662 whole entry, the tested form may be a part): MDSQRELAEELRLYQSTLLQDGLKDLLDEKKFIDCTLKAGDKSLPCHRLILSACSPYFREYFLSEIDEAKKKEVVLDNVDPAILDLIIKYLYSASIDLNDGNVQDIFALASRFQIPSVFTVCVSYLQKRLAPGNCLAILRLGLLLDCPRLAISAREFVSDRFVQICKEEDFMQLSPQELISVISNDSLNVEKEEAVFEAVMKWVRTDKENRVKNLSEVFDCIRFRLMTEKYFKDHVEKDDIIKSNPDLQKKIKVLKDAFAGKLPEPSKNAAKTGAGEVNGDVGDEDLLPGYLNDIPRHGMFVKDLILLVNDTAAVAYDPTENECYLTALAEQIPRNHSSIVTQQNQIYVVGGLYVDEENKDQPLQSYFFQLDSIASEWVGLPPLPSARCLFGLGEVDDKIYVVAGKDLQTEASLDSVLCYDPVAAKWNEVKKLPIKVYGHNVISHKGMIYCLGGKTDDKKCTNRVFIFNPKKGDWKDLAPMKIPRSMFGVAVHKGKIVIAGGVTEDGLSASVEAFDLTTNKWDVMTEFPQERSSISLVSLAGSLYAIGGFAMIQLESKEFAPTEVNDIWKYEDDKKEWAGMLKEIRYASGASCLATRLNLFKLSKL

## Human NEB (aa 5647-5849) MBP-HA fusion protein (from UniProt P20929 5647-5849) (domain or fragment)
  delta F% (HTRF, 10nM KLHL41 and 100nM NEB): 950%
